The source of these data is a protein production outcome set (Wang et al. 2014).

The data set in a line: label from the status in PepcDB records.

In the case of “MSLKIIAPTDKTITPSGTWSIGARAGDFVFIGGMHGTDRVTGKMVDGDEARIRRMFDNMLAAAEAAGATKADAVRLTVFVTDVAKYRPVVNKVQKDIWGDGPYPPRTVLQVPALDQGDIAEIDGTFYAPAEGHHHHHH”, the protein production entry is recorded as “not failed”.
For “MSLKKYQLVIVGYGGMGSYHVTLASAADNLEVHGVFDILAEKREAAAQKGLKIYESYEAVLADEKVDAVLIATPNDSHKELAISALEAGKHVVCEKPVTMTSEDLLAIMDVAKRVNKHFMAHQNRRWDEDFLIIKEMFEQKTIGEMFHLESRVHGANGIPGDWRHLKAHGGGMVLDWGVHLLDQLLFLVDSNVKSVSANLSFALGDEVDDGFVTFITFENGITAQIEVGTTNFIKLPRWYVKGTEGTGIIHDWDLSGEIVKPTALAKTSEPTPIKAGQGLTKTMAPPSEEATNTLSLPAPAKLAPSFYNNFVDVLNNTSEPIVQNEEVYQVLKLIEAIFEAAETNRTVHSIEGHHHHHH”, the protein production entry is given as “not failed”.
In the case of “MSLKNKLQVKIPGKLYVAGEYAVVESGHTAILTAVNRYITLTLEDSERNELWIPHYENPVSWPIGGELKPDGEHWTFTAEAINIATTFLKSEGIELTPVKMVIETELIDQSGAKYGLGSSAAATVAVINALMTKFYPEISMLKKFKLAALSHLVVQGNGSCGDIASCMYGGWIAYTTFDQEWVKHRLAYKSLEWFMKEPWPMLQIETLEEPVPTFSVGWTGTPVSTGKLVSQIHAFKQEDSKNYQHFLTRNNEIMKQIIQAFHTKDEELLYSSIKENRRILQELGTKAGVNIETSLLKELADSAENMGGAGKSSGSGGGDCGIAFSKTKELAEKLVNEWEKLGIKHLPFHTGRVQITEGHHHHHH”, the protein production result is on record as “not failed”.
For “MSLKTNFVKYERKDNKDLCEITLENDAGMAVKVLNYGATLEKVLLDGENMILSLNSPEDYSKERNFLGGTVGRIAGRVRAGQWKHGNEIHQLPLNDGDNHIHGGIGTDMHVWDFRPSCDSEHARVDLTLFDPDGNNDYPGNLKLHARYELDNENNLHYLLEAVSDKLTIFNPVNHTYFNLGERAEDLNLQMNADYYLPVDEAGLPDRGMAEVAGTAFDFRKTKRIGDALNSDDSQIKLRNGLDHPFILNGNNPAALLSSNKHRLIVKTNAPALVLYAGNHFNHTGIVNNIGQYDGITFEAQCPPAEGNDLGQITLLPFEKFKRTVDWKFEEGHHHHHH”, the protein production result is “not failed”.
The result for “MSLKTTTSSTPSDRITWVRISSCYLPLATPISDAKVLTGRQKPMTEIAILFAEIETAGGHQGLGFSYSKRAGGPGQFAHAREIAPALIGEDPSDIAKLWDKLCWAGASAGRSGLSTQAIGAFDVALWDLKAKRAGLSLAKLLGSYRDSVRCYNTSGGFLHTPIDQLMVNASASIERGIGGIKLKVGQPDGALDIARVTAVRKHLGDAVPLMVDANQQWDRPTAQRMCRIFEPFNLVWIEEPLDAYDHEGHAALALQFDTPIATGEMLTSAAEHGDLIRHRAADYLMPDAPRVGGITPFLKIASLAEHAGLMLAPHFAMELHVHLAAAYPREPWVEHFEWLEPLFNERIEIRDGRMLVPTRPGLGLTLSGQVKAWTREEAQVGTRPEGHHHHHH” reads “not failed”; that for “MSLLKIFYVILGFISLGLGLIGIILPILPTTPFLLLTAFCFVKGSDKFDKWFKGTKIYKNHLESFEKNRAMTLKTKLTILLTADIMLLFPLILSKSIHLKIFIVILMMFKFYYFIFRIKTVKAGDVVEQNR”, “failed”.
Regarding “MSLLNIKFTDNAVDYLKRREILDKILILITDDGGGKYSIQGGSCSMGAHFSIIWLDKVDPDYPVKIANEQNVKIYTSDFDKTMLGPNMVMDYNAGSLSLSSDEGLLDGSVDIGNGAALLKANKNVQMGINRQCEGHHHHHH”, the protein production entry is given as “not failed”.
Turning to “MSLLQQADRLHRQLLRTGPAQAPCWEPPVDMIETESAVLIYVALPGVAAGDVAVRFDPDGISISGVRPLPALRNARIHGLEIPYGRFQRRIRLPLHALEPEAPTLADGCLTLTLKKLREAPLEHHHHHH”, the protein production entry is “failed”.
With “MSLNDNNTILGFDVNLICDFFLNTERQGPGSPEVTLKALSFIDNLTNKSLIADLGCGTGGQTMILAQHVPGKITGIDFFPGFIERFNKNAEKLNLQNRVKGIVGSMDDLSFEKDSLDLIWSEGAIYNIGFERGLKEWRNYLKPGGYLAVSESVWFTDQRPAEIHDFWMSAYTEIDTVPNKVAQIQKAGYIPVATFILPENCWIEHYFAPQAKAEEIFRRKHAGSRIVEELITSNHHEAELYSKYKAYYGYAFFICKKGFSLREGHHHHHH”, the protein production result is on record as “not failed”.
“MSLPHLSSGEVASVLPLGKQLTQTPSAALFKEHRLEVMRMVLPAGKQVGSHSVAGPSTIQCLEGEVEIGVDGAQRRLHQGDLLYLGAGAAHDVNAITNTSLLVTVVLVDRGGS”: the protein production entry was “not failed”.
Turning to “MSLPQSKVLTSFGTANRTPRAAETHPLTWRLRDDGQPVWLEEYQTKQGYDAVRKALGQMSPDEIVSTVKDAGLKGRGGAGFPTGVKWGLMPKDESMNIRYLLCNADEMEPNTWKDRLLMEQLPHLLIEGMIISAKALKAYRGYIFLRGEYVDAAINLRRAVEEAKAAGLLGKNILGSGFDFELFVHTGAGRYICGEETALINSLEGRRANPRAKPPFPAVSGVWGKPTCVNNVETLCNVPAIIGNGVAWYHTLALPGSEDHGTKLMGFSGKVNNPGVWELPFGITARELFEGYAGGMRSGYRLKAWQPGGAGTGFLLPEHLDAQMYTAGIGKVGTRMGTGLAMAVDDSISMVSLLRNMEEFFARESCGWCTPCRDGLPWSVKLLRSLERGEGQEGDLATLEQLCNFLGPGKTFCAHAPGAVEPLASAIKYFRSEFEAGIKGSGDNRKSIKGIQPNLLGERWLEHHHHHH”, the protein production result is reported as “not failed”.
As for “MSLQFNPIGLFLVALILLGVLGNNNSITISATLLLLMQQTALNKYIPMLEKYGLTIGIIILTIGVLSPIVSGKINLPNLSEILSWKMALAISIGIFVAWLGGRGINLMATQPLIITGLLIGTIIGIAFFGGIPVGPLIAAGIMSLLVGKL”, the protein production entry is “failed”.
Consider “MSLQLINLNSDLKRLRDEGYFIQVKNGFLIMRDVPYVNSNRHVCRGTIISSLSLAGDRTRIPDTHVVHFDGDMPCNAEGEALNAVVLQSSIFDLGRGITAKHMFSSKPKSGYTDYYHKMTTYASILSGHAEVLNSGISPKVFSTPEDEEDSVFNYTETASGRVGIGALSDLLTEE”, for which the protein production result is “failed”.
Regarding “MSLQLRLALNQIDSTVGDIAGNAEAILRWTRHSAEQGAHLVAFPEMALTGYPVEDLALRSSFVEASRTALRELAARLAEEGFGELPVLVGYLDRSESAQPKYGQPAGAPRNAAAVLHRGRVALTFAKHHLPNYGVFDEFRYFVPGDTMPIVRLHGVDIALAICEDLWQDGGRVPAARSAGAGLLLSVNASPYERDKDDTRLELVRKRAQEAGCTTAYLAMIGGQDELVFDGDSIVVDRDGEVVARAPQFSEGCVVLDLDLPAAEAEPPTGVVDDGLRIDRLVISEEPLPAYEAELAGGYADRLDADEEVYSALVVGLRAYVAKNGFRSVLIGLSGGIDSALVAAIACDALGAQNVYGVSMPSKYSSDHSKGDAAELARRTGLNFRTVSIEPMFDAYMASLGLTGLAEENLQSRLRGTTLMAISNQEGHIVLAPGNKSELAVGYSTLYGDSVGAYGPIKDVYKTSIFRLAEWRNRAAAERGQTPPIPEASITKPPSAELRPGQVDTDSLPDYPVLDAILELYVDRDTGADAIVAAGYDRELVVKTLRMVDTAEYKRRQYPPGTKISAKGFGKDRRLPITNRWREGHHHHHH”, the protein production entry is reported as “not failed”.
For “MSLQTCVLHRLSLPLKFPMRTAHGHIREKQAILVQLVDADGIEGWSECVALAEPTYTEECTDTAWVMLVHHLVPRFARWLRAASQDQDVDPRTVCEALRDVRGNRMSVAAIEMAVWDWYAARTGQPLVGLLGGGRDRVEVSATLGMSESLDVLIQSVDAAVEQGFRRVKLKIAPGRDRAAIKAVRLRYPDLAIAADANGSYRPEDAPVLRQLDAYDLQFIEQPLPEDDWFDLAKLQASLRTPVCLDESVRSVRELKLTARLGAARVLNVKPGRLGGFGATLRALDVAGEAGMAAWVGGMYETGVGRVHGLIAAALPLMRYATDLGPSDRYFEQDVLKEPIAFVEPGVIQVPQCAGVADWVDRDAVRRFSTATWSVDLRTLEGHHHHHH”, the protein production entry is given as “not failed”.
“MSLRAVRLHAKWDPRPEFKLGPKDIEGKLTWLGSKVWRYPEVRVEEVPEPRIEKPTEIIIKVKACGICGSDVHMAQTDEEGYILYPGLTGFPVTLGHEFSGVVVEAGPEAINRRTNKRFEIGEPVCAEEMLWCGHCRPCAEGFPNHCENLNELGFNVDGAFAEYVKVDAKYAWSLRELEGVYEGDRLFLAGSLVEPTSVAYNAVIVRGGGIRPGDNVVILGGGPIGLAAVAILKHAGASKVILSEPSEVRRNLAKELGADHVIDPTKENFVEAVLDYTNGLGAKLFLEATGVPQLVWPQIEEVIWRARGINATVAIVARADAKIPLTGEVFQVRRAQIVGSQGHSGHGTFPRVISLMASGMDMTKIISKTVSMEEIPEYIKRLQTDKSLVKVTMLNEGHHHHHH”: the protein production entry is listed as “not failed”.
Regarding “MSLRVIDTHCDALYKLQAGKGKYTFQDAEELDVNFERLIEAKMLLQGFAIFLDEDIPVEHKWKKAVEQVNIFKQHVLHKGGIIHHVKKWCDLENLPEDKIGAMLTLEGIEPIGRDLDKLTQLLDGGVLSVGLTWNNANLAADGIMEERGAGLTRFGKDIIHLLNERKVFTDVSHLSVKAFWETLEQAEFVIASHSNAKAICSHPRNLDDEQIKAMIEHDAMIHVVFYPLFTTNNGVADTEDVIRHIDHICELGGLKNIGFGSDFDGIPDHVKGLEHVGKYQSFLETLEKHYTKEEIEGFASRNFLNHLPKEGHHHHHH”, the protein production result was “not failed”.
For the sequence “MSLSAKSSLKEVAELAGVGYATASRALSGKGYVSPQTREKVQAAAKELNYVPNQLAKALREHRSALVGVIVPDLSNEYYSESLQTIQQDLKAAGYQMLVAEANSVQAQDVVMESLISIQAAGIIHVPVVGSIAPEGIPMVQLTRGELGPGFPRVLCDDEAGFFQLTESVLGGSGMNIAALVGEESLSTTQERMRGISHAASIYGAEVTFHFGHYSVESGEEMAQVVFNNGLPDALIVASPRLMAGVMRAFTRLNVRVPHDVVIGGYDDPEWYSFVGAGITTFVPPHEEMGKEAVRLLVDLIENPELPTGDVVLQGQVILRGSSTHEGHHHHHH”, the protein production result is given as “not failed”.
In the case of “MSLSDQEFDEKYLELSEELKQSEKHKGTLDQGASQFLNAIEFVLRVYRQTEVIYVYAHLKNDQDTGNTDYQALYARASSLFSKVSEAVSWFEPEILQLSDDQIWQYFKEEPKLEVYRHYIQQIVDNRAHVLSAEQESLLAGAGEIFDASSDTFAVLNNADLVFPTIEGENGEIVQLSHGVYGQLLESTDRRVREAAFKGLYSVYEQFRNTFASTLGTHIKGHNFKAKVRNYSSAREASLSNNHIPESVYDTLVDVVNKHLPLLHRYMELRKRLLEVEKLHMYDLYTPVLGEAPITFTYEEAKEKALEALKPMGEEYMAIVEKAFSERWIDVVENKGKRSGAYSSGSYDTNPYILLNWHDTLDQLFTLVHEMGHSVHSYFTRSNQPYVYGDYSIFLAEIASTTNENILTEYLLETEKDPRVRAYVLNHYLDGFKGTVFRQTQFAEFEHFMHTEDEKGVPLTSEYLSDSYGKLNAKYYGPAVEEDPEIKFEWSRIPHFYYNYYVFQYSTGFSAASALAKKILNQEPEALENYLAYLKAGNSDYPVEVMKKAGVDMTQAAYIEDAMSMFEQRLNELEELIDREGHHHHHH”, the protein production result is “not failed”.
In the case of “MSLSDTIPVFDGHNDFLLRLLRNPANRETIWLKGDGTGHLDLPRMKEGGFAGGFFAIYVPSPQAHDAAHFEAMMDAPPFELPLPPMIRAEQAQPVALAMAGHLLWMERAARGRFKVCRTAAEVRSCHADGIVSGIMHMEGAEAIGADLDALHLFHSLGLRSLGPVWSRPTVFGHGVPFRFPGSPDTGEGLTEAGRRLVAECNRLKIMLDLSHLNEKGFDDVARLSDAPLVATHSNAHAVTPSTRNLTDRQLAMIRESRGMVGLNFATSFLREDGRRSAEMGWEPVLRHLDHLIDRLGEDHVGMGSDFDGATIPQGIADVTGLPALQAAMRAHGYDEPLMRKLCHENWYGLLERTWGEGHHHHHH”, the protein production entry is “not failed”.
